Experimental data published in US20150139982A1 (ALETHIA BIOTHERAPEUTICS, published 2015).
Residue numbers refer to the chain shown, from its start.

Legend:
[1] = molecular target: T1, Fc-Siglec-15 fusion protein (Homo sapiens (Human), UniProt Q6ZMC9 20-259, limits assumed); assay: SPR, Fc-Siglec-15 immobilized, antibody injected at 100 to 1.23 nM, 1:1 fit
T1 construct: also called recombinant Siglec-15; purified Fc-Siglec-15; not shown: Fc region
T1 sequence: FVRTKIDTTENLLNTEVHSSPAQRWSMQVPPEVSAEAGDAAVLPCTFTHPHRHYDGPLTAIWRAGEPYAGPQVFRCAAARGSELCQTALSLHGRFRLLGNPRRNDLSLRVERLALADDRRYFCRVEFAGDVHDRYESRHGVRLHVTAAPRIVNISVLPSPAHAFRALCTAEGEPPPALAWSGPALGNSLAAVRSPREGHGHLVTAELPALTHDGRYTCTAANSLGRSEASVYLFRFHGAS
Protocol: (§1) FIG. 12. SPR chromatograms illustrating the differences in binding parameters between the humanized 25E9 L1H1 IgG1 (left panel) and the humanized 25E9 L1H1 IgG2 (right panel). Purified Fc-Siglec-15 was immobilized (150RU) and humanized 25E9 was injected at the indicated concentrations (100 nM, 33.3 nM, 11.1 nM, 3.70 nM and 1.23 nM). The curves were fit with a 1:1 ratio.
(§2) More particularly, we compared the binding activity of the humanized 25E9 L1H1 IgG1 (the L1H1 IgG1 variant) with the humanized 25E9 L1H1 IgG2 (the L1H1 IgG2 variant) using SPR. The analysis was conducted using methods similar to what was described above (see Example 6). In this instance, Fc-Siglec-15 was immobilized on the chip and decreasing concentrations of the 25E9 antibody variants were injected (100 nM, 33.3 nM, 11.1 nM, 3.70 nM and 1.23 nM). […] The difference in binding was mostly contributed by a slower off-rate (kd) of the IgG1 compared to the IgG2.

[2] = molecular target: T1, Fc-Siglec-15 fusion protein; assay: SPR, Fc-Siglec-15 immobilized (150 RU), antibody injected at 100, 33.3, 11.1, 3.70 and 1.23 nM, 1:1 fit
Protocol: as §1, §2

[3] = molecular target: T2, human Siglec-15 (human, UniProt Q6ZMC9 20-328); assay: flow cytometry on 293-6E cells transfected with human Siglec-15
T2 construct: also called h-Siglec-15; CD33L3
T2 sequence: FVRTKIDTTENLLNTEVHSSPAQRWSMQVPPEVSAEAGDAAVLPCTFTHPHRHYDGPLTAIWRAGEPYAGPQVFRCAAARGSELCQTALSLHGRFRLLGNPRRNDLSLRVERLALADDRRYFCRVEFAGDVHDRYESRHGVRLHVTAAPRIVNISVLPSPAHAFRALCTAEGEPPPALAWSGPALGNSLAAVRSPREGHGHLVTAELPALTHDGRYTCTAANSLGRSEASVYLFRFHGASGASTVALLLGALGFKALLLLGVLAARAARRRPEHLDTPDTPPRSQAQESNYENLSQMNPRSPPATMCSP
Protocol: (§3) We tested the ability of the humanized antibodies to interact with human Siglec-15 expressed on the surface of cultured cells. […] Twenty-four hours later, the cells were harvested, counted and 1×10⁵ cells were incubated with increasing concentrations of the humanized IgG1 variant of 25E9 for 1 hour at 4 C. Following a washing step with cold PBS, bound 25E9 was detected with an anti-human kappa light chain IgG conjugated to FITC. Fluorescently labeled cells were injected into a flow cytometer to measure the fluorescence signal on the surface of intact cells. […] The average KD was in the low nanomolar range. Furthermore, the binding parameters were very similar in the presence of the humanized 25E9 L1H1 IgG1 variant produced in either CHO cells or 293 cells. […] Similar results were obtained with other 25E9 humanized IgG1 antibody variants (the L1H2 IgG1, the L1H3 IgG1, the L1H4 IgG1 and, the L1H1 IgG2) or with the humanized 25D8 IgG2 antibody.

[4] = molecular target: T2, human Siglec-15; assay: flow cytometry on 293-6E cells transfected with human Siglec-15 cDNA
Excerpt: The average KD was in the low nanomolar range. Furthermore, the binding parameters were very similar in the presence of the humanized 25E9 L1H1 IgG1 variant produced in either CHO cells or 293 cells. […] Similar results were obtained with other 25E9 humanized IgG1 antibody variants (the L1H2 IgG1, the L1H3 IgG1, the L1H4 IgG1 and, the L1H1 IgG2) or with the humanized 25D8 IgG2 antibody.
Experiments were undertaken to examine the feasibility of targeting Siglec-15-expressing cells with an ADC. The humanized 25E9 L1H1 IgG1 variant was conjugated to a payload that is toxic to proliferating cells as well as non-proliferating or fully differentiated cells, in particular osteoclasts. The humanized 25E9 L1H1 IgG1 conjugated antibody was designated 25E9-ADC. Since the conjugation might affect the ability of 25E9 to interact with native Siglec-15, flow cytometry was conducted to measure the binding of the 25E9-ADC to Siglec-15 expressing cells.

[5] = molecular target: T2, human Siglec-15; assay: cell-based or functional assay
[6] = molecular target: T1, Fc-Siglec-15 fusion protein; assay: SPR, Fc-Siglec-15 immobilized, antibody injected
Protocol: as §1, §2

[7] = molecular target: T2, human Siglec-15; assay: flow cytometry titration (0 to 4 µg/ml) on 293-6E cells transfected with human Siglec-15, detected with FITC anti-human kappa light chain; antibody made in 293 cells
Protocol: as §3

[8] = molecular target: T2, human Siglec-15; assay: flow cytometry titration (0 to 4 µg/ml) on 293-6E cells transfected with human Siglec-15, detected with FITC anti-human kappa light chain; antibody made in CHO cells
Protocol: as §3

B1: humanized 25E9 L1H1 IgG2 variant (antibody)
light: DIVMTQSPLSLPVTPGEPASISCRSTKSLLHSNGNTYLYWYLQKPGQSPQLLIYRMSNLASGVPDRFSGSGSGTDFTLKISRVEAEDVGVYYCMQHLEYPFTFGGGTKVEIKRTVAAPSVFIFPPSDEQLKSGTASVVCLLNNFYPREAKVQWKVDNALQSGNSQESVTEQDSKDSTYSLSSTLTLSKADYEKHKVYACEVTHQGLSSPVTKSFNRGEC
heavy: EIQLQQSGAEVKKPGSSVKVSCKASGYTFTDYDMHWVRQAPGQGLEWMGTIDPETGGTAYNQKFKGRVTITADKSTSTAYMELSSLRSEDTAVYYCTSFYYTYSNYDVGFAYWGQGTLVTVSSASTKGPSVFPLAPCSRSTSESTAALGCLVKDYFPEPVTVSWNSGALTSGVHTFPAVLQSSGLYSLSSVVTVPSSNFGTQTYTCNVDHKPSNTKVDKTVERKCCVECPPCPAPPVAGPSVFLFPPKPKDTLMISRTPEVTCVVVDVSHEDPEVQFNWYVDGVEVHNAKTKPREEQFNSTFRVVSVLTVVHQDWLNGKEYKCKVSNKGLPAPIEKTISKTKGQPREPQVYTLPPSREEMTKNQVSLTCLVKGFYPSDIAVEWESNGQPENNYKTTPPMLDSDGSFFLYSKLTVDKSRWQQGNVFSCSVMHEALHNHYTQKSLSLSPGK
notes: Full-length human kappa / human IgG2; also called humanized 25E9 IgG2
[1]
  Kd: 1.26 nM
[2]
  koff: 0.000655 s⁻¹
  kon: 520000 M⁻¹ s⁻¹

B2: humanized 25E9 L1H2 IgG1 (antibody, V domains shown)
VH: EIQLQQSGAEVKKPGSSVKVSCKASGYTFTDYDMHWVRQAPGQGLEWIGTIDPETGGTAYNQKFKGRATLTADRSTSTAYMELSSLRSEDTAVYYCTSFYYTYSNYDVGFAYWGQGTLVTVSS
VL: DIVMTQSPLSLPVTPGEPASISCRSTKSLLHSNGNTYLYWYLQKPGQSPQLLIYRMSNLASGVPDRFSGSGSGTDFTLKISRVEAEDVGVYYCMQHLEYPFTFGGGTKVEIKR
notes: The residue ranges are those stated in CLM-00047 (item b)
[3]
  binding result: binds

B3: humanized 25D8 IgG2 antibody (antibody, V domains shown)
VH: QVQLQQSGAEVKKPGSSVKVSCKASGYTFTSYWMHWVRQAPGQGLEWMGLINPSNARTNYNEKFNTRVTITADKSTSTAYMELSSLRSEDTAVYYCARGGDGDYFDYWGQGTTVTVSS
VL: B2 VL with S7T, T26S, N35I, R55Q, M94A, H96N, Y99L, F101Y
notes: Human kappa / human IgG2; also called humanized full-length IgG2 25D8
[3]
  binding result: binds

B4: humanized 25E9 L1H3 IgG1 (antibody, V domains shown)
VH: B2 VH with R38K, R67K
VL: B2 VL
notes: The residue ranges are those stated in CLM-00047 (item c)
[3]
  binding result: binds

B5: 25E9-ADC (humanized 25E9 L1H1 IgG1 conjugated antibody) (antibody)
light: B1 light
heavy: not shown
modifications: conjugated to a toxic payload; payload, linker and attachment residues not stated
[4]
  EC50 (read off the curve): ~0.2 µg/mL

B6: humanized 25E9 L1H4 IgG1 (antibody, V domains shown)
VH: B2 VH with R38K, Q43H, R67K, R87T
VL: B2 VL
notes: The residue ranges are those stated in CLM-00047 (item d)
[3]
  binding result: binds

B7: humanized 25E9 L1H1 IgG1 variant (antibody)
light: B1 light
heavy: not shown
notes: Full-length human kappa / human IgG1; Produced in CHO or 293 cells; also called humanized IgG1 variant of 25E9; unconjugated 25E9
[5]
  fold difference in potency against the humanized 25E9 L1H1 IgG2 variant (osteoclast differentiation): ~100 fold
[6]
  fold higher affinity than the humanized 25E9 L1H1 IgG2 variant: ~10 fold
[1]
  Kd: 0.164 nM
[4]
  EC50 (read off the curve): ~0.1 µg/mL
[2]
  koff: 0.000151 s⁻¹
  kon: 921000 M⁻¹ s⁻¹
[7]
  Kd: 1.9 nM
[8]
  Kd: 5.7 nM
